Tests used:
Conditions in all cases: remark: other sources report otherwise
[1] = molecular target: HLA-A*0201 on mild-acid treated JY cells (human); assay: competition vs FL-reference peptide, JY cells
[2] = molecular target: HLA-A*0201 on mild-acid treated JY cells (human)
[3] = molecular target: HLA-A*0201 on mild-acid treated JY cells (human); assay: competition vs FL-reference peptide, JY cells, 26°C 3 hr
[4] = molecular target: HLA-A*0201 on mild-acid treated JY cells (human); assay: competition vs FL-reference peptide, JY cells, 26°C 24 hr
[5] = molecular target: HLA-A*0201 on mild-acid treated JY cells (human); assay: competition vs FL-reference peptide, JY cells, 4°C 24 hr

Binder | IC50 [1] [µM] | further results
FLPSDFFPSV [hepatitis B nucleocapsid peptide …] | 0.4 | 
PLEEELPRL [HBV Pol 594-602] |  | HLA molecules detectable after 2 hr at 37°C (NS = non stable) [2]: < 10%
TLGIVCPI [HPV16 E7 86-93] | 0.7 | IC50 [3]: 6.5 µM; IC50 [4]: 3.1 µM; IC50 [5]: 0.7 µM
WLSLLVPFV [HBV surface 335] | 1 | 
DLMGYIPLV [HCVcore-132] | 5 | 
